{
  "source": "patent US20250003940A1",
  "about": "“BIOSENSOR, BIOSENSOR COMPONENTS, AND USE THEREOF” (VICTORIA LINK LIMITED, priority 2021, published 2025)",
  "molecules": {"B1": {"name": "BpsA: Streptomyces lavendulae blue pigment synthetase A, converts glutamine to indigoidine, SEQ ID NO: 1 (protein, UniProt Q1MWN4 1-1282, looked up)", "Indigoidine synthase": "MTLQETSVLEPTLQGTTTLPGLLAQRVAEHPEAIAVAYRDDKLTFRELASRSAALADYLEHLGVSADDCVGLFVEPSIDLMVGAWGILNAGAAYLPLSPEYPEDRLRYMIENSETKIILAQQRLVSRLRELAPKDVTIVTLRESEAFVRPEGTEAPAARSARPDTLAYVIYTSGSTGKPKGVMIEHRSIVNQLGWLRETYAIDRSKVILQKTPMSFDAAQWEILSPANGATVVMGAPGVYADPEGLIETIVKHNVTTLQCVPTLLQGLIDTEKFPECVSLQQIFSGGEALSRLLAIQTTQEMPGRALINVYGPTETTINSSSFPVDPADLDEGPQSISIGSPVHGTTYHILDKETLKPVGVGEIGELYIGGIQLARGYLHRDDLTAERFLEIELEEGAEPVRLYKTGDLGQWNNDGTVQFAGRADNQVKLRGYRVELDEISLAIENHDWVRNAAVIVKNDGRTGFQNLIACIELSEKEAALMDQGNHGSHHASKKSKLQVKAQLSNPGLRDDAELAARPAFDLEGAEPTPEQRARVFARKTYRFYEGGAVTQADLLGLLGATVTAGYSRKAADLAPAELGQILRWFGQYISEERLLPKYGYASPGALYATQMYFELEGVGGLKPGYYYYQPVRHQLVLISEREATGKATAQIHFIGKKSGIEPVYKNNILEVLEIETGHMVGLFEQILPAYGLDIHDRAYEPAVKDLLDVADEDYYLGTFELVPHAGARDDQAEVYVQTHGGKVAGLPEGQYRYENGELTRFSDDIVLKKHVIAINQSVYQAASFGISVYSRAEEEWLKYITLGKKLQHLMMNGLNLGFMSSGYSSKTGNPLPASRRMDAVLGANGVDSAPMYFFVGGRISDEQIGHEGMREDSVHMRGPAELIRDDLVSFLPDYMIPNRVVVFDRLPLSANGKIDVKALAASDQVNAELVERPFVAPRTETEKEIAAVWEKALRRENASVQDDFFESGGNSLIAVGLVRELNARLGVSLPLQSVLESPTIEKLARRLEREVAQESSRFVRLHAETGKARPVICWPGLGGYPMNLRSLAGEIGLGRSFYGVQSYGINEGETPYETITEMAKKDIEALKEIQPAGPYTLWGYSFGARVAFETAYQLEQAGEKVDNLFLIAPGSPKVRAENGKVWGREASFANRGYTTILFSVFTGTISGPDLDRCLETVTDEASFAEFISELKGIDVDLARRIISVVGQTYEFEYSFHELAERTLQAPISIFKAVGDDYSFLENSSGYSAEPPTVIDLDADHYSLLREDIGELVKHIRYLLGE"}},
  "test": "Enzyme activity after freeze-drying with stabilisers",
  "format": "physicochemical",
  "conditions": "freeze-dried with different stabilisers, compared with non-freeze-dried standard",
  "method": "FIG. 23A: RcArgZ activity levels after freeze-drying with different additives. RcArgZ was purified and exchanged into the freeze-drying buffers. The buffers contained 50 mM Tris-Cl pH 8.0, 1 mM MgCl2, and one of the stabilisers. The stabilisers were the following: 1 mM mannitol, 40 mg/mL mannitol, 1 mM sucrose, 10 mg/mL sucrose, 1 mM trehalose, 20 mg/mL trehalose, or 20 mg/mL sucrose and 40 mg/mL mannitol. The sample was then snap frozen using liquid nitrogen before putting in a benchtop freeze-dryer. The sample was left drying for 18-24 hours. The activity of the freeze-dried enzymes was tested and compared with the non-freeze-dried standard (in their corresponding storage buffer).\nFIG. 23B: HpGS activity levels after freeze-drying with different additives. HpGS was purified and buffer exchanged to the freeze-drying buffers. The buffers contained 50 mM Tris-Cl pH 8.0, 1 mM MgCl2, and the stabilisers. The stabilisers were the following: 1 mM mannitol, 40 mg/mL mannitol, 1 mM sucrose, 10 mg/mL sucrose, 1 mM trehalose, 20 mg/mL trehalose, or 20 mg/mL sucrose and 40 mg/mL mannitol. The sample was then snap frozen using liquid nitrogen before putting in a benchtop freeze-dryer. The sample was left drying for 18-24 hours. The activity of the freeze-dried enzymes was tested and compared with the non-freeze-dried standard (in their corresponding storage buffer). […]",
  "data": [
    {"molecule": "B1", "values": [
      {"measurement": "activity when freeze-dried", "value": "able to retain activity"}
    ]}
  ]
}
